Here are results for 1 molecule from US6093549, “Huntingtin-associated protein-related assays” (The Johns Hopkins University, dated 2000).

This assay concerns the target GAL-4 binding domain vector alone (pPC97) (yeast, UniProt P04386). The experiment in a line: yeast two-hybrid filter assay.

From the text: A cDNA encoding the first 230 amino acids of huntingtin containing 44 glutamine repeats was ligated to the GAL-4 binding domain in plasmid vector pPC97 for yeast two hybrid screening with a rat brain cDNA library.
A cDNA construct containing the first 230 amino acids with 44 or 23 glutamine repeats was in-frame fused with the GAL4 DNA binding domain of plasmid pPC97[27].

B1: rHAP1-BR (rat huntingtin Associated Protein1 Binding Region), GAL-4 activation domain construct (other)
chain: LLEEENDHLREEASHLDNLEDKEQMLILECVEQFSEASQQMAELSEVLVLRLEGYERQQKEITQLQAEITKLQQRCQSYGAQTEKLQQQLASEKGVHPESLRAGSHMQDYGSRPRERQEDGKSHRQRSSMPAGSVTHYGYSVPLDALPSFPETLAEELRTSLRKFITDP
On to B1, for which the binding result is “no binding”.
